In paper PMC8189816, “Molecular Basis for the Interactions of Human Thioredoxins with Their Respective Reductases” (Oxidative Medicine and Cellular Longevity, 2021):

T1: recombinant selenocysteine-containing rat TrxR1 (rat, UniProt O89049 1-499, selenocysteine (selenocysteine-containing; low degree of incorporation presumed by the paper))
T1 construct: rat cytosolic thioredoxin reductase 1, selenocysteine-containing; Used for all enzymatic assays (insulin reduction); also called recombinant selenocysteine-containing TrxR
T1 sequence (looked up): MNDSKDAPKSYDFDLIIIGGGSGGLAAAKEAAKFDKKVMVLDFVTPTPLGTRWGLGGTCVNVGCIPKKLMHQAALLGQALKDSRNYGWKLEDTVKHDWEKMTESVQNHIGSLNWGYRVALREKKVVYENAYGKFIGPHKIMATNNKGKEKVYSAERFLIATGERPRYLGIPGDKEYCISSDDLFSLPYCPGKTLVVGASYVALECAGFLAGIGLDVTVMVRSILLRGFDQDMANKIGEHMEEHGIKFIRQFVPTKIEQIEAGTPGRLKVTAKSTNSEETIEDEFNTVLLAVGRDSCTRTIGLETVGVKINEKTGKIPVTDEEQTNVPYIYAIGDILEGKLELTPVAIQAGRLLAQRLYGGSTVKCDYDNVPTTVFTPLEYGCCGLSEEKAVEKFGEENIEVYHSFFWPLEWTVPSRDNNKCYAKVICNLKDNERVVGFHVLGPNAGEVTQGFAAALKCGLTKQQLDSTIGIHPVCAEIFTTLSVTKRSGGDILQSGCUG


Tests used:
[1] = biological target: recombinant selenocysteine-containing rat TrxR1 (rat) (UniProt O89049)
[2] = biological target: human thioredoxin reductase 1 (TrxR1) U498C mutant (human) (UniProt Q16881); test: differential scanning fluorimetry; 10 uM hTrxR (U498C), hTrx1 0 to 100 uM, Sypro Orange 1:500, 50 mM Tris, 1 mM EDTA, pH 7.4; Tm of the first denaturation step of TrxR plotted against log [Trx] (Hill plot), EC50 converted to Kd
[3] = biological target: T1, recombinant selenocysteine-containing …; test: enzyme inhibition kinetics (insulin reduction assay, NADPH depletion); 1.25 nM recombinant rat selenocysteine-containing TrxR, 150 uM NADPH, 160 uM insulin, 50 mM Tris-EDTA pH 7.5; Lineweaver-Burk plots, Ki from secondary plot of slopes against the concentration of the redox-inactive mutant; details: both partners purified

Binder	KM of TrxR1 for the Trx1 variant, insulin reduction-coupled assay [1]	Kd [2]	Ki [3]
human Trx1 K39E (natural protein) MVKQIESKTAFQEALDAAGDKLVVVDFSATWCGPCKMIEPFFHSLSEKYSNVIFLEVDVDDCQDVASECEVKCMPTFQFFKKGQKVGEFSGANKEKLEATINELV	1.45 µmol/L	9.68 µM	–
human Trx1 A17R,I53R (natural protein) MVKQIESKTAFQEALDRAGDKLVVVDFSATWCGPCKMIKPFFHSLSEKYSNVRFLEVDVDDCQDVASECEVKCMPTFQFFKKGQKVGEFSGANKEKLEATINELV	2.73 µmol/L	–	–
human Trx1 D60N (natural protein) MVKQIESKTAFQEALDAAGDKLVVVDFSATWCGPCKMIKPFFHSLSEKYSNVIFLEVDVNDCQDVASECEVKCMPTFQFFKKGQKVGEFSGANKEKLEATINELV	3.26 µmol/L	–	–
human Trx1 K94E (natural protein) MVKQIESKTAFQEALDAAGDKLVVVDFSATWCGPCKMIKPFFHSLSEKYSNVIFLEVDVDDCQDVASECEVKCMPTFQFFKKGQKVGEFSGANEEKLEATINELV	3.78 µmol/L	–	–
human thioredoxin 1 (Trx1), wild-type (natural protein) MVKQIESKTAFQEALDAAGDKLVVVDFSATWCGPCKMIKPFFHSLSEKYSNVIFLEVDVDDCQDVASECEVKCMPTFQFFKKGQKVGEFSGANKEKLEATINELV	–	13.6 µM	–
human Trx1 D58,60,61N (natural protein) MVKQIESKTAFQEALDAAGDKLVVVDFSATWCGPCKMIKPFFHSLSEKYSNVIFLEVNVNNCQDVASECEVKCMPTFQFFKKGQKVGEFSGANKEKLEATINELV	5.83 µmol/L	–	–
human Trx1 S67H (natural protein) MVKQIESKTAFQEALDAAGDKLVVVDFSATWCGPCKMIKPFFHSLSEKYSNVIFLEVDVDDCQDVAHECEVKCMPTFQFFKKGQKVGEFSGANKEKLEATINELV	1.36 µmol/L	–	–
human Trx1 Q63R (natural protein) MVKQIESKTAFQEALDAAGDKLVVVDFSATWCGPCKMIKPFFHSLSEKYSNVIFLEVDVDDCRDVASECEVKCMPTFQFFKKGQKVGEFSGANKEKLEATINELV	6.37 µmol/L	–	–

Further lines, results first:

KM of TrxR1 for the Trx1 variant, insulin reduction-coupled assay [1]	Kd [2]	Ki [3]	Binder
9.82 µmol/L	5.28 µM	–	human Trx1 K36E (natural protein) MVKQIESKTAFQEALDAAGDKLVVVDFSATWCGPCEMIKPFFHSLSEKYSNVIFLEVDVDDCQDVASECEVKCMPTFQFFKKGQKVGEFSGANKEKLEATINELV
7.09 µmol/L	–	–	human Trx1 Q63R,K94E (natural protein) MVKQIESKTAFQEALDAAGDKLVVVDFSATWCGPCKMIKPFFHSLSEKYSNVIFLEVDVDDCRDVASECEVKCMPTFQFFKKGQKVGEFSGANEEKLEATINELV
1.24 µmol/L	–	–	human Trx1 C73H (natural protein) MVKQIESKTAFQEALDAAGDKLVVVDFSATWCGPCKMIKPFFHSLSEKYSNVIFLEVDVDDCQDVASECEVKHMPTFQFFKKGQKVGEFSGANKEKLEATINELV
2.22 µmol/L	–	–	human Trx1 K72E (natural protein) MVKQIESKTAFQEALDAAGDKLVVVDFSATWCGPCKMIKPFFHSLSEKYSNVIFLEVDVDDCQDVASECEVECMPTFQFFKKGQKVGEFSGANKEKLEATINELV
–	9.8 µM	5.3 µM	human Trx1 C32,35S (redox-inactive active site double mutant) (natural protein, UniProt P10599 1-105, looked up, human cytosolic thioredoxin 1, both active site cysteinyl residues exchanged for seryl residues; also called hTrx1C32,35S; double cysteinyl mutant) MVKQIESKTAFQEALDAAGDKLVVVDFSATWSGPSKMIKPFFHSLSEKYSNVIFLEVDVDDCQDVASECEVKCMPTFQFFKKGQKVGEFSGANKEKLEATINELV
